Measurements reported in patent US20200199576.
Changes are numbered by the printed parent chain. Names and notes keep the numbering of the source.

Tests used:
xUbcH7 (human), R5E, K9E = target: T1, xUbcH7 (human), R5E, K9E
T1 chain: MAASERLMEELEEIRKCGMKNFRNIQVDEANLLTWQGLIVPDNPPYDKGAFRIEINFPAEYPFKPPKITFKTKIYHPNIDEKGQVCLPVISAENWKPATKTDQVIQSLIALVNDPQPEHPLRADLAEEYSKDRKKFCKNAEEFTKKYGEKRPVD

CDK4, P11802 = target: T2, CDK4, P11802
T2 chain: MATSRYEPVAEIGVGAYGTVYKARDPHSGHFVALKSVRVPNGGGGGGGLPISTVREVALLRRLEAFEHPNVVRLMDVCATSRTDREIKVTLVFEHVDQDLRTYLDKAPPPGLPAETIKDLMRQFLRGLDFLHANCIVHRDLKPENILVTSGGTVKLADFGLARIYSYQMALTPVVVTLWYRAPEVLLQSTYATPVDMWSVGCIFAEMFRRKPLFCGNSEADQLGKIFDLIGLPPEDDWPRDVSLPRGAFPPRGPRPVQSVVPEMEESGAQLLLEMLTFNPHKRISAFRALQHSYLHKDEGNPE

kinase MAPK3, P27361 = target: T3, kinase MAPK3, P27361
T3 chain: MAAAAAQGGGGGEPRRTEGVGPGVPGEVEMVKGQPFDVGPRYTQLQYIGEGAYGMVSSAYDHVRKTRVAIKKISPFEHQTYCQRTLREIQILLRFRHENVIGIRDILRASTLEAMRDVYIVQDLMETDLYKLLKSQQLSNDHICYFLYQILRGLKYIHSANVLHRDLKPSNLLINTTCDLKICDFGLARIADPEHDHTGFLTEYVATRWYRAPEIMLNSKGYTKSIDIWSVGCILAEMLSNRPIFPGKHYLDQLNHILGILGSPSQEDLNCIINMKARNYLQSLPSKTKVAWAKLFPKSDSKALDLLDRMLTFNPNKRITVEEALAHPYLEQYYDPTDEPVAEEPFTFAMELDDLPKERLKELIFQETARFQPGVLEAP

[1] = target: phosphatase PPP3CA, Q08209
[2] = target: protein arginine methyl transferase PRMT1, Q99873
β-catenin, P35222 = target: T4, β-catenin, P35222
T4 chain: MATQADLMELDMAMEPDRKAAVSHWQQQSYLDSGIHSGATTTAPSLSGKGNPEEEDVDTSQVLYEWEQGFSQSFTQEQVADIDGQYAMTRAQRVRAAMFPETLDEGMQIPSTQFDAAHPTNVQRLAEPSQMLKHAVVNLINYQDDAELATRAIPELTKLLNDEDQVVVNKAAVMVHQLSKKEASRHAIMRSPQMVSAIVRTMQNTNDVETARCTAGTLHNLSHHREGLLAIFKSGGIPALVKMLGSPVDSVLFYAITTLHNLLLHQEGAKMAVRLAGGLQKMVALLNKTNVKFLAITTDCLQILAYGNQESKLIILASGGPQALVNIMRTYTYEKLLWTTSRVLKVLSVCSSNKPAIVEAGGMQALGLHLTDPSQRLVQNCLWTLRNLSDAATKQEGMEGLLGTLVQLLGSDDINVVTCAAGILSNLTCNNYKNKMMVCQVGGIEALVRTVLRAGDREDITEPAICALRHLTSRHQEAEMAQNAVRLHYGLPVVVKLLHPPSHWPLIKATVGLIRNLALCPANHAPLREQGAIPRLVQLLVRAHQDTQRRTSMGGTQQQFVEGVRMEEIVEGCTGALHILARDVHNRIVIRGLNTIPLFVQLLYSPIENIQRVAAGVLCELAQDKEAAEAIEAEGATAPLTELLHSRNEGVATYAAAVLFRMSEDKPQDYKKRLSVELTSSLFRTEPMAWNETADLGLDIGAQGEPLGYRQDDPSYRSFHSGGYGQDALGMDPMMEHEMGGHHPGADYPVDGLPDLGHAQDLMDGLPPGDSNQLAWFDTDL

p53, P04637, sequence (P04637 whole entry, looked up): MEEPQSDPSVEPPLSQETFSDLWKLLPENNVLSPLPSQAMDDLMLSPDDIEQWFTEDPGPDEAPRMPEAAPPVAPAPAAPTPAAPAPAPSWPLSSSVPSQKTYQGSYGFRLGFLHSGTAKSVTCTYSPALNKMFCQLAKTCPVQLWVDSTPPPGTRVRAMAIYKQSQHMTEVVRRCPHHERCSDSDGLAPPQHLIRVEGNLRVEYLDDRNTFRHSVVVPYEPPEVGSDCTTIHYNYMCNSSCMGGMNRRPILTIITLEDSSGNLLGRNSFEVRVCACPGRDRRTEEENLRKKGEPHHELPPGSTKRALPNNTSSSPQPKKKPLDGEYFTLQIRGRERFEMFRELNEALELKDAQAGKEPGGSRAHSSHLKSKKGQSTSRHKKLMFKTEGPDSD
protein arginine methyl transferase PRMT1, Q99873, sequence (Q99873 whole entry, looked up): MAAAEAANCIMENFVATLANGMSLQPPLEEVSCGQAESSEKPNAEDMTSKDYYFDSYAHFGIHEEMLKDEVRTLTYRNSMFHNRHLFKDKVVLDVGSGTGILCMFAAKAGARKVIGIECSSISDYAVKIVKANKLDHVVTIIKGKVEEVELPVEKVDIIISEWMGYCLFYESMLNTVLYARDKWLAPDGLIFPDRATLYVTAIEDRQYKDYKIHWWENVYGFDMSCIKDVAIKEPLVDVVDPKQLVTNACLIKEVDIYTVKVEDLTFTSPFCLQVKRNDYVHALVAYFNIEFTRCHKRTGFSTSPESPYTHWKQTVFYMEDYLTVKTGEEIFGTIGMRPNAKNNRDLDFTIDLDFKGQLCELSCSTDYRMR

B1: HECT domain of wt Smurf1 (protein)
chain: YERDLVQKLKVLRHELSLQQPQAGHCRIEVSREEIFEESYRQIMKMRPKDLKKRLMVKFRGEEGLDYGGVAREWLYLLCHEMLNPYYGLFQYSTDNIYMLQINPDSSINPDHLSYFHFVGRIMGLAVFHGHYINGGFTVPFYKQLLGKPIQLSDLESVDPELHKSLVWILENDITPVLDHTFCVEHNAFGRILQHELKPNGRNVPVTEENKKEYVRLYVNWRFMRGIEAQFLALQKGFNELIPQHLLKPFDQKELELIIGGLDKIDLNDWKSNTRLKHCVADSNIVRWFWQAVETFDEERRARLLQFVTGSTRVPLQGFKALQGSTGAAGPRLFTIHLIDANTDNLPKAHTCFNRIDIPPYESYEKLYEKLLTAVEETCGFAVE
HECT auto-ubiquitination with wt UB, reducing gel (wt UbcH7 (human E2)): HECT domains of wt E6AP, Nedd4, Smurf1 and Smurf2 can be loaded with wt UB through the wt Uba1-UbcH7 pair
HECT auto-ubiquitination with xUB, reducing gel (xUbcH7 (human), R5E, K9E): the R5E and K9E mutants in the N-terminal helix of xUbcH7 interfered with the transfer of xUB to wt HECT E3s such as E6AP, Nedd4, Smurf1, and Smurf2

B2: wt HECT domain of E6AP (protein)
chain: MKRAAAKHLIERYYHQLTEGCGNEACTNEFCASCPTFLRMDNNAAAIKALELYKINAKLCDPHPSKKGASSAYLENSKGAPNNSCSEIKMNKKGARIDFKDVTYLTEEKVYEILELCREREDYSPLIRVIGRVFSSAEALVQSFRKVKQHTKEELKSLQAKDEDKDEDEKEKAACSAAAMEEDSEASSSRIGDSSQGDNNLQKLGPDDVSVDIDAIRRVYTRLLSNEKIETAFLNALVYLSPNVECDLTYHNVYSRDPNYLNLFIIVMENRNLHSPEYLEMALPLFCKAMSKLPLAAQGKLIRLWSKYNADQIRRMMETFQQLITYKVISNEFNSRNLVNDDDAIVAASKCLKMVYYANVVGGEVDTNHNEEDDEEPIPESSELTLQELLGEERRNKKGPRVDPLETELGVKTLDCRKPLIPFEEFINEPLNEVLEMDKDYTFFKVETENKFSFMTCPFILNAVTKNLGLYYDNRIRMYSERRITVLYSLVQGQQLNPYLRLKVRRDHIIDDALVRLEMIAMENPADLKKQLYVEFEGEQGVDEGGVSKEFFQLVVEEIFNPDIGMFTYDESTKLFWFNPSSFETEGQFTLIGIVLGLAIYNNCILDVHFPMVVYRKLMGKKGTFRDLGDSHPVLYQSLKDLLEYEGNVEDDMMITFQISQTDLFGNPMMYDLKENGDKIPITNENRKEFVNLYSDYILNKSVEKQFKAFRRGFHMVTNESPLKYLFRPEEIELLICGSRNLDFQALEETTEYDGGYTRDSVLIREFWEIVHSFTDEQKRLFLQFTTGTDRAPVGGLGKLKMIIAKNGPDTERLPTSHTCFNVLLLPEYSSKEKLKERLLKAITYAKGFGML
HECT auto-ubiquitination with wt UB, reducing gel (wt UbcH7 (human E2)): HECT domains of wt E6AP, Nedd4, Smurf1 and Smurf2 can be loaded with wt UB through the wt Uba1-UbcH7 pair

B3: xE6AP (fYW6), full-length E6AP with the YW6 HECT domain (protein)
chain: B2 chain with D651R, D652E, M653W, M654H
p53 ubiquitination in the presence of E6, Western blot (p53, P04637): fYW6 could efficiently ubiquitinate p53 with xUB through the xUba1-xUbcH7-fYW6 cascade and the ubiquitination was dependent on the E6 protein
full-length E6AP auto-ubiquitination with xUB, Western blot (xUbcH7 (human), R5E, K9E): fYW4 and fYW6 can be auto-ubiquitinated by xUB through the xUba1-xUbcH7 cascade

B4: E6AP HECT mutant YW6 (D651R, D652E, M653W, M654H) (protein)
chain: B2 chain with D651R, D652E, M653W, M654H
HECT auto-ubiquitination with xUB, Western blot (xUbcH7 (human), R5E, K9E): YW3, YW4 and YW6 could be efficiently auto-ubiquitinated with xUB through the xUba1-xUbcH7 pair

B5: wt CHIP (full-length) (protein)
chain: MKGKEEKEGGARLGAGGGSPEKSPSAQELKEQGNRLFVGRKYPEAAACYGRAIMQQHEQALADCRRALELDGQSVKAHFFLGQCQLEMESYDEAIANLQRAYSLAKEQRLNFGDDIPSALRIAKKKRWNSIEERRIHQESELHSYLSRLIAAERERELEECQRNHEGDEDDSHVRAQQACIEAKHDKYMADMDELFSQVDEKRKKRDIPDYLCGKISFELMREPCITPSGITYDRKDIEEHLQRVGHFDPVTRSPLTQEQLIPNLAMKEVIDAFISENGWVEDY
in vitro substrate ubiquitination with wt UB through wt Uba1-UbcH5b-CHIP, Western blot (CDK4, P11802): CHIP could poly-ubiquitinate MAPK3, β-catenin and CDK4
in vitro substrate ubiquitination with wt UB through wt Uba1-UbcH5b-CHIP, Western blot (kinase MAPK3, P27361): CHIP could poly-ubiquitinate MAPK3, β-catenin and CDK4
p53 ubiquitination with wt UB, Western blot (p53, P04637): p53 modification by wt UB going through the wt Uba1-UbcH5b-CHIP cascade
in vitro substrate ubiquitination with wt UB through wt Uba1-UbcH5b-CHIP, Western blot [1]: CHIP ubiquitination of PRMT1 and PPP3CA generated mono-ubiquitinated species
in vitro substrate ubiquitination with wt UB through wt Uba1-UbcH5b-CHIP, Western blot [2]: CHIP ubiquitination of PRMT1 and PPP3CA generated mono-ubiquitinated species
in vitro substrate ubiquitination with wt UB through wt Uba1-UbcH5b-CHIP, Western blot (β-catenin, P35222): CHIP could poly-ubiquitinate MAPK3, β-catenin and CDK4

B6: xCHIP (CHIP-KB2), C213K, G214D, K215P, S217M, F218H, E219T (protein)
chain: B5 chain with C213K, G214D, K215P, S217M, F218H, E219T
p53 ubiquitination with xUB, Western blot (p53, P04637): both CHIP mutants could transfer xUB to p53, a known CHIP substrate (26), at an efficiency comparable to wt UB transfer by wt CHIP

B7: xCHIP (CHIP-KB12), C213K, G214D, K215P, S217M, F218R, E219T (protein)
chain: B5 chain with C213K, G214D, K215P, S217M, F218R, E219T
p53 ubiquitination with xUB, Western blot (p53, P04637): both CHIP mutants could transfer xUB to p53, a known CHIP substrate (26), at an efficiency comparable to wt UB transfer by wt CHIP

B8: HECT domain of wt Nedd4 (protein)
chain: SRDYKRKYEFFRRKLKKQNDIPNKFEMKLRRATVLEDSYRRIMGVKRADFLKARLWIEFDGEKGLDYGGVAREWFFLISKEMFNPYYGLFEYSATDNYTLQINPNSGLCNEDHLSYFKFIGRVAGMAVYHGKLLDGFFIRPFYKMMLHKPITLHDMESVDSEYYNSLRWILENDPTELDLRFIIDEELFGQTHQHELKNGGSEIVVTNKNKKEYIYLVIQWRFVNRIQKQMAAFKEGFFELIPQDLIKIFDENELELLMCGLGDVDVNDWREHTKYKNGYSANHQVIQWFWKAVLMMDSEKRIRLLQFVTGTSRVPMNGFAELYGSNGPQSFTVEQWGTPEKLPRAHTCFNRLDLPPYESFEELWDKLQMAIENTQGFDGVD
HECT auto-ubiquitination with wt UB, reducing gel (wt UbcH7 (human E2)): HECT domains of wt E6AP, Nedd4, Smurf1 and Smurf2 can be loaded with wt UB through the wt Uba1-UbcH7 pair
HECT auto-ubiquitination with xUB, reducing gel (xUbcH7 (human), R5E, K9E): the R5E and K9E mutants in the N-terminal helix of xUbcH7 interfered with the transfer of xUB to wt HECT E3s such as E6AP, Nedd4, Smurf1, and Smurf2
